Experimental data taken from patent US9944718B2, “ADAM22 for use as a prognostic variable, and target for therapy, of a metastatic breast cancer disease” (Royal College of Surgeons in Ireland, priority 2011, dated 2018).
Peptide text beside a SMILES is read from it.

B1: LGI1: neuronal protein and known ADAM22 ligand LGI1 (SEQ ID NO: 1), GENBANK AAQ89244 (protein, listed as Homo sapiens)
chain: MESERSKRMGNACIPLKRIAYFLCLLSALLLTEGKKPAKPKCPAVCTCTKDNALCENARSIPRTVPPDVISLSFVRSGFTEISEGSFLFTPSLQLLLFTSNSFDVISDDAFIGLPHLEYLFIENNNIKSISRHTFRGLKSLIHLSLANNNLQTLPKDIFKGLDSLTNVDLRGNSFNCDCKLKWLVEWLGHTNATVEDIYCEGPPEYKKRKINSLSSKDFDCIITEFAKSQDLPYQSLSIDTFSYLNDEYVVIAQPFTGKCIFLEWDHVEKTFRNYDNITGTSTVVCKPIVIETQLYVIVAQLFGGSHIYKRDSFANKFIKIQDIEILKIRKPNDIETFKIENNWYFVVADSSKAGFTTIYKWNGNGFYSHQSLHAWYRDTDVEYLEIVRTPQTLRTPHLILSSSSQRPVIYQWNKATQLFTNQTDIPNMEDVYAVKHFSVKGDVYICLTRFIGDSKVMKWGGSSFQDIQRMPSRGSMVFQPLQINNYQYAILGSDYSFTQVYNWDAEKAKFVKFQELNVQAPRSFTHVSINKRNFLFASSFKGNTQIYKHVIVDLSA
modifications: (1)..(557) LGI1 protein

Legend:
[1] = Toxicity study of LGI1 peptide mimetic in vivo; settings: preliminary in vivo studies; FIG. 1F
Experimental: LGI1 mimetic was delivered by daily intraperitoneal injection to C57/bl6 mice at high (100 ug/kg/day), medium (10 ug/kg/day) and low dose (1 ug/kg/day) for 30 days.

[2] = test system: endocrine resistant LY2 cells; experiment: Motility assay, LY2 cells; assay type: cell-based; settings: 5 nM, FIG. 1C/1E
Source text: (§1) • For cell culture use Minimum Essential Medium-Eagle (EMEM; BioWhittaker, Product No. 12-611Q) containing the following supplements (=EMEM Complete Medium): 10% fetal calf serum (BioWhittaker, Product No. 14-503F), 1X penicillin/streptomycin solution (BioWhittaker, Product No. 17-602E), 1% L-glutamine (BioWhittaker, Product No. 17-605E), 1% non-essential amino acids (BioWhittaker, Product No. 13-114E) and 1% sodium pyruvate (BioWhittaker, Product No. 13-115E). • Split cells when they reach 60-80% confluency (every 2-3 days), diluting 1:5 to 1:10. • For cell motility, harvest cells with trypsin-versene mixture (BioWhittaker, Product No. 17-161F) and dilute into EMEM Complete Medium (warmed to 37° C.). For cells cultured in a T-75 flask, wash cells with 3 ml of trypsin. Add another 3 ml of trypsin and aspirate 2 ml. Allow cells to detach by incubating flask at 37° C. for 5 minutes and then add 9 ml of EMEM Complete Medium and centrifuge cells at 400×g for 5 minutes at room temperature. • Wash 3× with Serum-Free Culture Medium (warmed to 37° C.) (see Procedure section). • Adjust cell density to 10^4 cells/ml in EMEM serum-free medium and add 50 μl of the cell suspension to each well of a 96-well microplate (=500 cells/well). Cell motility is stimulated with 50 μl of 10% fetal bovine serum (FBS) diluted in EMEM serum-free medium. […]

[3] = test system: endocrine resistant LetR cells; experiment: Motility assay, LetR cells; assay type: cell-based; settings: 5 nM, FIG. 1C/1E
Source text: as §1

MCF7 cells = experiment: Motility assay, MCF7 cells; assay type: cell-based; settings: 5 nM, FIG. 1C
Source text: as §1

LetR cells = experiment: Cellular differentiation in 3D culture, LetR cells; assay type: cell-based; settings: LetR cells treated with LGI1; n=3; FIG. 1D
[4] = test system: endocrine resistant LetR cells; experiment: Xenograft model of endocrine resistance; assay type: in vivo; settings: FIG. 1G
Source text: As ADAM22 expression has previously only been described in the central nervous system, a therapeutic directed against systemic ADAM22 has the potential to be highly specific for the breast and have low toxicity. The neuronal protein, LGI1 serves as a specific extracellular ligand for ADAM22^4. […] The Applicant has shown that treatment with recombinant LGI1 reduced cellular migration and restored differentiation in endocrine resistant cells in a similar manner to that observed with knockdown of ADAM22 (FIGS. 1C and D). A 22 amino acid peptide mimetic of LGI1 with a simple hairpin structure against the active binding domain of ADAM22 has been developed. […] In vivo studies have been undertaken to assess the efficacy of the LGI1 mimetic in reducing breast cancer burden in endocrine resistant breast cancer. […] This has significant advantage over previous methods described of detecting metastatic disease^9.

[5] = LetR cells in vivo, daily injection

Molecule | tolerability / toxicity [1] | cellular migration [2] | cellular migration [3] | cellular migration (MCF7 cells) | cellular differentiation (LetR cells) | cell proliferation in vivo [4, 5] | metastasis in vivo [4, 5] | tumour burden ([4]; xenograft model of endocrine resistance)
CC[C@H](C)[C@H](NC(=O)[C@H](Cc1ccccc1)NC(=O)[C@H](CCCNC(=N)N)NC(=O)[C@@H](NC(=O)[C@H](CC(C)C)NC(=O)[C@H](CS)NC(=O)[C@@H](NC(=O)[C@H](Cc1ccc(O)cc1)NC(=O)[C@@H](NC(=O)[C@H](CC(=O)O)NC(=O)CNC(=O)[C@@H](N)CCCCN)C(C)C)[C@@H](C)CC)[C@@H](C)O)C(=O)NCC(=O)N[C@@H](CC(=O)O)C(=O)N[C@@H](CO)C(=O)N[C@@H](CCCCN)C(=O)N[C@H](C(=O)N[C@@H](CCSC)C(=O)N[C@@H](CCCCN)C(=O)N[C@@H](Cc1c[nH]c2ccccc12)C(=O)NCC(=O)NCC(=O)O)C(C)C [LGI1 mimetic] (H-KGDVYICLTRFIGDSKVMKWGG-OH) | well tolerated with no toxicity observed | – | – | – | – | – | – | –
B1 | – | significantly reduced cellular migration | significantly reduced cellular migration | no discernable effect | restored cellular differentiation | inhibits | inhibits | significantly reduced tumour burden
